Laboratory results reported in the supplement of paper PMC12764529.
± gives the half width of the 95% confidence interval.

Assays:
[1] = folding stability dG unfold from trypsin proteolysis; higher = more stable
Experimental: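 Folding stability of de novo designed mini-proteins (<80 aa, no Cys; designed by TrROS, TrMRF, ProteinMPNN and the joint model) was measured by cDNA display proteolysis with trypsin and chymotrypsin. Each protease was used at 11 concentrations in a threefold dilution series plus a no-protease condition. K50 was inferred by Bayesian fitting of sequencing counts, and dG unfold was derived against a sequence-predicted unfolded-state K50 (Tsuboyama et al. method). Sequences shown include variable-length N-terminal GS-type padding (SAGGSAGG...) inside a display construct carrying a PA tag. Rows were kept only if the AF2 dimer inter-PAE was >15, to exclude likely homo-oligomers.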

[2] = folding stability dG unfold (combined trypsin and chymotrypsin); higher = more stable
Summary of the method: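 Mini-proteins designed to be under 80 residues and free of cysteine were carried in a PA-tagged cDNA display construct and digested with trypsin and with chymotrypsin. Each protease was applied at 11 threefold-diluted concentrations, alongside a no-protease condition, before sequencing. K50 came from Bayesian fitting of the sequencing counts, and unfolding free energy was obtained by comparing it with a sequence-predicted unfolded-state K50 and a shared folded-state K50, for each protease separately or for both together. Designs were retained only if their AlphaFold2 dimer inter-PAE exceeded 15.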

| Sequence | folding stability dG unfold [1] [kcal/mol] | folding stability dG unfold [2] [kcal/mol] |
| --- | --- | --- |
| SAGGSAGGSMERLENGIERIRLLVRFPERDEVRLIEIPLDNVTPEEIIERARELGAEEIELLESAGGSAGGS [r12_792_TrMRF] | 0.11 ± 0.26 | -0.545 ± 0.22 |
| SAGGSAGGSMIVEKKYSLDPAKGTITTTTTTVTPVPNGDSLIVSTTTTTKSVSPSESPDISSSSAGGSAGGS [r12_700_JUSTAS] | -0.39 ± 0.066 | -0.553 ± 0.24 |
| SAGGSAGGSMKVITVPLPDGGTTTYEVEKGKVTITYPPSVTKEIEVPDPSKAIENIETVSYKSSAGGSAGGS [r12_32_JUSTAS] | -0.76 ± 0.13 | < -1 |
| SAGGSAGGSMLTITVKTTDPAKGGSATTVIPVPVPGSVEEARELAEEIKKKLPPEVVEITVLESAGGSAGGS [r12_871_JUSTAS] | -0.294 ± 0.19 | < -1 |
| SAGGSAGGSMPLRLAPVPIFLPEEEAVPVIEKLIEEGTEGGVGLIVPNVISPEEAGVHPDEPVSAGGSAGGS [r12_93_TrMRF] | -0.263 ± 0.08 | < -1 |
| SAGGSAGGSMPVEVKFTVEKDPSTDLLTVTVTRPGGEVTPITYPDPNNLEAAKAAAEALAKASSAGGSAGGS [r12_1012_JUSTAS] | 0.365 ± 0.076 | -0.2 ± 0.41 |
| SAGGSAGGSMVEIDPDNLVLTIVDPETGKAAVITAPPTADGTPVIKDVVVFDPDGNPHTFTVDSAGGSAGGS [r12_952_TrMRF] | 0.666 ± 0.022 | 0.13 ± 0.091 |
| SAGGSAGGSPPYIRVKIEFQNPNGQERKFKITIPPDQPLSQAKDIAPDFAKNGYPVRIEDIEISAGGSAGGS [r12_804_TrROS] | -0.209 ± 0.17 | < -1 |
| SAGGSAGGSSAEEIAKELGYKEIEVKPLRPVSTETLDSGGYSQKTEYVTTIKLPDGTEIEIPVSAGGSAGGS [r12_221_JUSTAS] | 0.788 ± 0.025 | 0.275 ± 0.051 |
| SAGGSAGGSSSPEEIKAEFKKKGYPKVEVKPVTPDTYLVTVTSPGTGKTTEYPITGSPSGKGLSAGGSAGGS [r12_170_JUSTAS] | -0.822 ± 0.35 | < -1 |
| SAGGSAGGSSVLRVTVEIPETGETVELTVPPSVTEEDVRARIEAEGHAIEKIEVTESEVPPLASAGGSAGGS [r12_955_JUSTAS] | -0.358 ± 0.096 | < -1 |
| SAGGSAGGSVKELAKKLNIKEVKVEPVDGEKVTLIKIKVKNKKTKKEYEKTILIKDKKTGKILSAGGSAGGS [r12_133_TrROS_Hall] | -0.405 ± 0.23 | -0.845 ± 0.38 |
| SAGGSAGGSWPFRIEIYNPENGKEEVKDIPGDLDELKDLIPPGYRVKIEFGDEEITIPIDDIKSAGGSAGGS [r20_36_TrROS] | -0.331 ± 0.16 | -0.587 ± 0.27 |
| SAGGSAGSMSIEEVVEKAKEEGIEVEVTSLPESGLTVVTITKKLPNGEVVESIILEHPEGTTTVLSSAGGSA [r15_1051_JUSTAS] | 0.644 ± 0.057 | 0.0134 ± 0.14 |
| SAGGSAIKITKVEYEPNPDGWREIHFKATPGDPDFLDEIAEALPPDNIEPTEVDEKGYYEIRIPRPSAGGSA [r15_386_TrROS] | 0.0955 ± 0.058 | -0.291 ± 0.17 |
| SAGGSALIVLEGDLDSVVALAKEAGDPNVKVEPVADFNDDPSEPRLYRITIERDGEPDGELLFLDPSAGGSA [r15_428_TrMRF] | -0.0896 ± 0.1 | < -1 |
| SAGGSAMIRTFNIKFPGKSEEEALEAIKNLPEEVTEKIEEVKVEEIKKEGDSIYVKLTIKVPKEILSAGGSA [r15_244_JUSTAS] | 0.636 ± 0.19 | 0.00147 ± 0.51 |
| SAGGSANTIMIPFDDLTPDKILEAAEESPDPIMIHNPDNGRFLTVEVEDGGIDDVTWEPFDPEDFGSAGGSA [r15_751_TrROS] | 0.499 ± 0.042 | -0.135 ± 0.18 |
| SAGGSAPNEEITIPIRIRVENPEDGKPIHEIPIPIKVPKGQTQDQILDQAKNWMEEHGMKIKEIEISAGGSA [r15_195_TrROS] | -1.32 ± 0.86 | < -1 |
| SAGGSASIDELKEEILAKTPPDVVTTGYATSSDSLSTRTYSTPAGHRVVISYTDNEIKSVSLEKAGSAGGSA [r15_175_JUSTAS] | 0.333 ± 0.16 | -0.138 ± 0.22 |
| SAGGSASVPPGKSVTLRISFPETGEERTITLDVKSSEELEAAAELEVPRPDGTPVPVTVSVVETVPSAGGSA [r15_797_JUSTAS] | 0.386 ± 0.094 | 0.085 ± 0.24 |

| Sequence | folding stability dG unfold [1] [kcal/mol] | folding stability dG unfold [2] [kcal/mol] |
| --- | --- | --- |
| SAGGSAVPPSANVGPLKEKIEVTEDPEKGTKTYTRVLKDPATGKTIVETSVIPPDGSVTLVKTVLVSAGGSA [r15_146_JUSTAS] | -0.0156 ± 0.073 | -0.307 ± 0.12 |
| SAGGSDYVGRVQIDKVDPEDPGQVRINLEWWQPNGKAIPIEHTIPNEQLKNNPPDATIEFKMEPPPSAGGSA [r2_128_TrROS] | -0.514 ± 0.32 | < -1 |
| SAGGSEVRELAEAIAAARGLPLRAIETKEVTPDTVEITMELPDDRTLTVTVPRSPEGGYEVTVTEDASAGGS [r8_284_JUSTAS] | -0.349 ± 0.26 | < -1 |
| SAGGSMIEVEIENPDPSVSPEEIAERVIRELTPDGGPLQPLEIKPTLVGDKPVYKIKIYIPDPELIKESAGG [r13_979_JUSTAS] | -0.519 ± 0.2 | < -1 |
| SAGGSMPITVSVPVPPDVPLEEVAERIEKELREAGIEADVREVTRVPGEGRILLHFDAGKTGVIPASAGGSA [r2_242_JUSTAS] | -0.251 ± 0.12 | < -1 |
| SAGGSPKPIAEAILKELGYPDAIVKNIPIEKLENGIIIIPLEVIYPKNPKKGKPIKRIIKPNEKFASAGGSA [r2_137_TrMRF] | 0.108 ± 0.095 | < -1 |
| SAGGSSMEELIKAVLEAAEAGKKAVNVKMPLPDGGEIEILDGGVIRIIPPDGVPLEEKIPVSELILSAGGSA [r2_97_JUSTAS] | 0.442 ± 0.044 | < -1 |
| SAGGSSMLSPSESLPLPPDEDVEVSLPSPLSAKLTYDPATGTVSVTVTDPNNPGVPLSSTTRPLTASAGGSA [r2_266_JUSTAS] | 0.662 ± 0.037 | -0.203 ± 0.22 |
| SAGGTKYTVSLRPPPTALPSREFTDSPLEIVEALPEDTTEATVTVDNNSTSTTVTFTTKEDLIAAVASSAGG [r13_299_JUSTAS] | 0.00719 ± 0.14 | -0.14 ± 0.33 |
| SAGGTPIGDGQTGESSTFDEEVTDPVTGEKVKVKVTIPVTIDPETGKTVRTVTITNPLEGKTTTTLTLSAGG [r13_262_JUSTAS] | -0.379 ± 0.13 | < -1 |
| SAGGWIPIDEIKDLLDNGKPMPLEQIVKEIQKDFGYPVTIEEDDDSFWIHVENPNTGEPREEIEIDPSAGGS [r8_105_TrROS] | 0.354 ± 0.11 | -0.392 ± 0.38 |
| SAGGYDKEGKPIRVVEINIPPDQPDTILKFAREEIDNNRWDIIHITSPNQVKWIKQAFPEKGIPIHIQSAGG [r13_353_TrROS] | 0.311 ± 0.3 | -0.167 ± 0.38 |
| SAGKVEVKVDEETGTVTVTVEVNGELVEKKVEVKPPPPVKVFSAEELRERNPELKKLLEENPDKLVVLESAG [r5_957_TrROS_Hall] | -0.473 ± 0.26 | < -1 |
| SAGMEAEAERIAEELERELPPTYRITSITVTPQPDNTWVAPITIEKVDAEGRVLGPSTVTVTLPPGLGSAGG [r19_28_JUSTAS] | 0.494 ± 0.044 | -0.452 ± 0.14 |
| SAGMEIKIEKLEDGTYKITIKLYNKETNEEIEEIEIEVKKLKDGTYKVKIKIKNKETGKEFELEFEIKPSAG [r5_610_TrROS_Hall] | 4.02 ± 0.34 | > 6 |
| SAGMKELVLVERDAPVLGVYLDPETGRPRLEPRPVPVVVVVEVEPDSEAARELAEKLAPEDVRVEVLPASAG [r5_468_TrMRF] | 0.164 ± 0.05 | -0.483 ± 0.24 |
| SAGMKFKPGAKVEVYNKKTKKKIVLPVEELRKLAREKFGVETEEERLAEAIKEKAKENGFEIVKIEPVSAGG [r19_67_TrROS_Hall] | -0.166 ± 0.35 | -0.0445 ± 0.44 |
| SAGMSSSEVIDIDAGPEKLKELVAKIKKESPNYTIVVTDPETGKPTLLDPSELKNIPGPVKLTITKYPQSAG [r5_437_JUSTAS] | -1.16 ± 0.66 | < -1 |
| SAGMTTETTEKTAPDGKTRTTTVTYPSEEKAADTTTVVVTETPVETDGSERILTTTTVYKNGVKVATTGSAG [r14_958_JUSTAS] | -0.851 ± 0.56 | < -1 |
| SAGNIKKGSIYMPEDGWMIKIEYPDPGKEIHIPFDDDLSEIKDNLEEPGFEPVAVEVEPFPPGQPMEISAGG [r19_386_TrROS] | -1.05 ± 0.22 | < -1 |
| SAGNPKIIEEETIPMPDGGPMKIYVDPEAPRIEIYNPDNGKPEEFPIPPGEKLEFPMPPDGWMTVKVLSAGG [r19_118_TrROS] | -0.279 ± 0.14 | < -1 |
